1 molecule from paper PMC6773438 can be followed below.

The target in the assay is mononucleosomes reconstituted by salt dialysis with purified recombinant Drosophila core histones (Drosophila), P84051. Put plainly: native gel or EMSA; gel mobility shift; 147 bp X. borealis 5S rDNA mononucleosomes (60 nM) with indicated amounts of Dsup; HEG buffer (25 mM Hepes K+, pH 7.6, 0.1 mM EDTA, 10% glycerol), 100 mM KCl, BSA; 30°C 30 min; nondenaturing 4.5% polyacrylamide gel at 4°C, ethidium bromide. To be noted: remark: other sources report otherwise.

B1: Ramazzottius varieornatus damage suppressor protein (Rv Dsup), P0DOW4 1-445 (natural protein)
chain: MASTHQSSTEPSSTGKSEETKKDASQGSGQDSKNVTVTKGTGSSATSAAIVKTGGSQGKDSSTTAGSSSTQGQKFSTTPTDPKTFSSDQKEKSKSPAKEVPSGGDSKSQGDTKSQSDAKSSGQSQGQSKDSGKSSSDSSKSHSVIGAVKDVVAGAKDVAGKAVEDAPSIMHTAVDAVKNAATTVKDVASSAASTVAEKVVDAYHSVVGDKTDDKKEGEHSGDKKDDSKAGSGSGQGGDNKKSEGETSGQAESSSGNEGAAPAKGRGRGRPPAAAKGVAKGAAKGAAASKGAKSGAESSKGGEQSSGDIEMADASSKGGSDQRDSAATVGEGGASGSEGGAKKGRGRGAGKKADAGDTSAEPPRRSSRLTSSGTGAGSAPAAAKGGAKRAASSSSTPSNAKKQATGGAGKAAATKATAAKSAASKAPQNGAGAKKKGGKAGGRKRK
As to B1, the stoichiometry N (molecules of Rv Dsup per nucleosome) stood at 2.
